Common to all, as to experiment: cell-based or functional assay
For test [1], the target named is H1N1 circulating viruses (n=18) and vaccines strains (n=3).
For test [2], the target named is H3N2 circulating viruses (n=30) and vaccines strains (n=4).
The target of test [3] is all H3N2 and H1N1 circulating strains and vaccines strains (n=55 viruses).

B1: VIS410 (antibody, V domains shown)
VH: QVQLLETGGGLVKPGQSLKLSCAASGFTFTSYAMHWVRQPPGKGLEWVAVVSYDGNYKYYADSVQGRFTISRDNSKNTLYLQMNSLRAEDTAVYYCAKDSRLRSLLYFEWLSQGYFNPWGQGTTLTVSS
VL: DIQMTQSPSSLSASVGDRVTITCRSSQSITFDYKNYLAWYQQKPGKAPKLLIYWGSYLESGVPSRFSGSGSGTDFTLTISSLQPEDFATYYCQQHYRTPPSFGQGTKVEIK
As to B1, the figures for the Mean IC50, phenotypic IC50 assay in test [1] and in test [2] were 0.6 µg/mL and 1.3 µg/mL, respectively. This molecule had a Median IC50, phenotypic IC50 assay in test [3] of 0.9 µg/mL.

These data come from US20200308257A1.
